Patent CN114907482A
Positions count from the first letter of the chain named. Each block holds one binder with its values, some of them ahead of it.

Target: 人Claudin18.2 (human) (UniProt P56856)
Experiment: cell-based or functional assay

- 活细胞比率 (CDC, 20%人血浆, 30min, 293T-hClaudin18.2细胞; 无抗体对照81.34%): 34%
B1: 鼠单抗1B10 (antibody, V domains shown)
VH: QVQLKESGPGLVAPSQSLSITCTVSGFSLTSYVINWVRQPPGKGLEWLGVIWTGGGTNYNSALKSRLSISKDTSKSQVFLKMNSLQTDDTARYYCARGAYYGNAMDYWGQGTSVTVSS
VL: DIVMTQSPSSLTVTAGEKVTMSCKSSQSLLNSGNQKNYLTWYQQKPGQPPKLLIYWAATRESGVPDRFTGSGSGTDFTLTISSVQAEDLAVYYCQNDYSYPFTFGSGTKLEIK

- 活细胞比率 (CDC, 20%人血浆, 30min, 293T-hClaudin18.2细胞; 无抗体对照81.34%): 3.94%
B2: 鼠单抗1A6 (antibody, V domains shown)
VH: QVQLQQPGAELVKPGASVKLSCKASGYTFTSYWMQWVKQRPGQGLEWIGMTHPNSGGTNYNEKFKSKATLTVDKSSSTAYMQLSSLTSEDSAVYYCARLGRGNAMDYWGQGTSVTVSS
VL: B1 VL with A58S, E61K, A90T, V91I
